Where no end group is shown, it is not given here.
Tests used:
Assay in all cases: fluorescence polarisation
[1] = target: human mitochondrial Hsp70 (mtHsp70), wild-type (human, UniProt P38646 47-679)
[2] = target: human mtHsp70 R126W PD variant (human, UniProt P38646 47-679, R126W)
[3] = target: human mtHsp70 P509S PD variant (human, UniProt P38646 47-679, P509S)
Chain of human mtHsp70 P509S PD variant (P38646 47-679 P509S): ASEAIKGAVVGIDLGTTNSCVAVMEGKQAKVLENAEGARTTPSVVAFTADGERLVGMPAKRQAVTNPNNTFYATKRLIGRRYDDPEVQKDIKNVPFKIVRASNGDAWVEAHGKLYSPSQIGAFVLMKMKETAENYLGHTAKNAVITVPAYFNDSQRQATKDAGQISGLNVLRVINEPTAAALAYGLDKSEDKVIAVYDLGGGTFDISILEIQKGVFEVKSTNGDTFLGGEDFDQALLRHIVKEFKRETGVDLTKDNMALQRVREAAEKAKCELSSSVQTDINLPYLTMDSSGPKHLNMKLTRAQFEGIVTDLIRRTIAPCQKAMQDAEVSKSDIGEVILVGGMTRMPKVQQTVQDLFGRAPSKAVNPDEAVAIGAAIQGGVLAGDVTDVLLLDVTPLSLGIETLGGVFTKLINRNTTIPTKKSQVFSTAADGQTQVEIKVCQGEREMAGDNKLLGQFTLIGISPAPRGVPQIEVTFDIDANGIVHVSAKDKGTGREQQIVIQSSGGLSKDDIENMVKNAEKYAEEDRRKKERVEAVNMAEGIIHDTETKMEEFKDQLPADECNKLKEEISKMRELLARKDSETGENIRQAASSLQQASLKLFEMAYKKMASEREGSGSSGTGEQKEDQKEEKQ

Chain of human mitochondrial Hsp70 (mtHsp70), wild-type (P38646 47-679): as the sequence (P38646 47-679 P509S) above, with S463P counted along it
Chain of human mtHsp70 R126W PD variant (P38646 47-679 R126W): as the sequence (P38646 47-679 P509S) above, with R80W, S463P counted along it

Kd [1]: 15.6 ± 1.4 µM | Kd [2]: 13.6 ± 2.7 µM | Kd [3]: 15.7 ± 1.9 µM
B1: fluorescein-labeled P5 peptide (F-P5) (peptide)
chain: ALLLSAPRR
modifications: also: fluorescein label, position not given here

Reference: paper PMC3392108 (Human Molecular Genetics, 2012)
